The data set deals with Escherichia coli TOP10. Kind of data set: shrunken log2 fold change of peptide-encoding DNA abundance (4.5 h post-induction vs induction); higher = less antimicrobial activity (less host growth inhibition). The settings on record: time post-induction: 4.5 h; library: site-saturation at positions 5, 18, 19, 20.

The record followed here is the supplement of paper PMC9112550, “Optimization of the antimicrobial peptide Bac7 by deep mutational scanning” (BMC Biology, 2022).
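Further: peptides expressed intracellularly from a pBAD plasmid library in pooled LB shake-flask culture, induced with 0.3% L-arabinose, DNA abundance read by NGS, three biological replicates, DESeq2 with apeglm shrinkage.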

Regarding RRIRTRPPRLPRPRPRPCPAPRP, the “shrunken log2 fold change” value was determined as 0.115.
Regarding RRIRYRPPRLPRPRPRPSQTPRP, the “shrunken log2 fold change” value is -0.0989.
With RRIRNRPPRLPRPRPRPFAFPRP the figure was -0.74.
With RRIRSRPPRLPRPRPRPFMMPRP, the “shrunken log2 fold change” value is -0.643.
RRIRERPPRLPRPRPRPPTMPRP: the “shrunken log2 fold change” value was -0.151.
With RRIRPRPPRLPRPRPRPEIKPRP the figure was 0.0782; with RRIRRRPPRLPRPRPRPVSIPRP, -0.0599; with RRIRFRPPRLPRPRPRPNVNPRP, -0.375.
Under RRIRDRPPRLPRPRPRPVWRPRP stands 0.0883; under RRIRIRPPRLPRPRPRPSQLPRP, -0.385; under RRIRTRPPRLPRPRPRPHYEPRP, -0.174.
Under RRIRCRPPRLPRPRPRPRASPRP stands 0.282; under RRIRERPPRLPRPRPRPFWLPRP, 0.463; under RRIRIRPPRLPRPRPRPYQMPRP, -0.35.
Take RRIRQRPPRLPRPRPRPSPWPRP: the “shrunken log2 fold change” value turned out to be 0.433.
Under RRIRFRPPRLPRPRPRPHVFPRP stands -0.136; under RRIRGRPPRLPRPRPRPTVEPRP, 1.27; under RRIRMRPPRLPRPRPRPQYEPRP, -0.148.
Under RRIRIRPPRLPRPRPRPMGFPRP stands 0.0523; under RRIRGRPPRLPRPRPRPRSYPRP, 0.288; under RRIRERPPRLPRPRPRPEGSPRP, 0.0172.
With RRIRDRPPRLPRPRPRPVYTPRP the figure was -0.0405; with RRIRPRPPRLPRPRPRPDWQPRP, -0.0976.
RRIRSRPPRLPRPRPRPEVEPRP: the “shrunken log2 fold change” value stood at 0.112.
With RRIRIRPPRLPRPRPRPNIIPRP the figure was -0.719; with RRIRCRPPRLPRPRPRPMAPPRP, 0.219.
In the case of RRIRARPPRLPRPRPRPPTPPRP, the “shrunken log2 fold change” value is 1.33.
With RRIRKRPPRLPRPRPRPQHQPRP the figure was 0.122; with RRIRTRPPRLPRPRPRPWTKPRP, -0.00433; with RRIRARPPRLPRPRPRPFYSPRP, -0.0849.
RRIRPRPPRLPRPRPRPEYAPRP: the “shrunken log2 fold change” value was 0.0857.
With RRIRSRPPRLPRPRPRPHYEPRP the figure was -0.573; with RRIRPRPPRLPRPRPRPPSGPRP, 0.527.
For RRIRLRPPRLPRPRPRPLQKPRP, the “shrunken log2 fold change” value is 0.141.
Regarding RRIRFRPPRLPRPRPRPLPLPRP, the “shrunken log2 fold change” value is 0.0222.
Under RRIRIRPPRLPRPRPRPVCLPRP stands -0.369.
For RRIRWRPPRLPRPRPRPLLRPRP, the “shrunken log2 fold change” value is 0.325.
Under RRIRNRPPRLPRPRPRPNNAPRP stands 0.0167; under RRIRERPPRLPRPRPRPCQIPRP, -0.193; under RRIRWRPPRLPRPRPRPISRPRP, -0.116.
With RRIRYRPPRLPRPRPRPHEIPRP, the “shrunken log2 fold change” value is -0.194.
With RRIRGRPPRLPRPRPRPCREPRP the figure was -0.368; with RRIRWRPPRLPRPRPRPYWQPRP, -0.0738.
Under RRIRWRPPRLPRPRPRPRMDPRP stands 0.211; under RRIRLRPPRLPRPRPRPHPFPRP, 0.0808; under RRIRCRPPRLPRPRPRPTFLPRP, -0.475.
With RRIRWRPPRLPRPRPRPEIYPRP the figure was 0.21; with RRIRMRPPRLPRPRPRPWVTPRP, -0.15.
On to RRIRWRPPRLPRPRPRPAKMPRP, for which the “shrunken log2 fold change” value came out at 0.519.
Turning to RRIRLRPPRLPRPRPRPRQCPRP, the “shrunken log2 fold change” value stood at 0.283.
